Numbering of substitutions follows the chain as printed.
What was measured:
[1] = target: T1, Human His-tagged RBP4 (residues 19-201), soluble (human, UniProt P02753 19-201); test: yeast display, + A1120; mean ± S.D., n=3
[2] = target: T1, Human His-tagged RBP4 (residues …); test: yeast surface display, flow cytometry: soluble His-tagged RBP4 titrated on yeast displaying the binder, anti-penta-His detection, with 5 µM A1120; mean of three
Source text: (§1) "a" can be part of a soluble protein (secreted or exogenously added) or of a transmembrane construct and "c" can be part of a signal transducing construct (shown in A and B). Of course, "a" and "c" can be integrated in the constructs vice versa (not shown). There are many more possible arrangements (not shown). […] RBP4-binding was detected with an anti-penta-His antibody and subsequently analyzed by flow cytometry.

[3] = target: T1, Human His-tagged RBP4 (residues …); test: yeast surface display, flow cytometry: soluble His-tagged RBP4 titrated on yeast displaying the binder, anti-penta-His detection, with 5 µM A1120
Source text: as §1

[4] = target: T1, Human His-tagged RBP4 (residues …); test: ITC, + A1120; mean ± S.D., n=4
Experimental: (§2) The samples were centrifuged (17000 g, 10 min, 20° C.) and dialysed against the same buffer (PBS). RBP4 protein solution was applied to the sample cell and the respective RBP4 binding interaction partners were titrated with varying intervals. Different concentrations both for RBP4 and RBP4 binding interaction partners were used. […] Data analysis was performed with the MicroCal PEAQ-ITC analysis software and the resulting data were fitted to a one-set-of-sites binding model. […] The integrated data were fitted to one-set-of-sites binding model to calculate the K_D values in FIG. 18.

[5] = target: T1, Human His-tagged RBP4 (residues …); test: ITC; ratio of the KD without to the KD with A1120
Experimental: as §2

[6] = target: T1, Human His-tagged RBP4 (residues …); test: ITC, -A1120; mean ± S.D., n=4
Experimental: as §2

[7] = target: T1, Human His-tagged RBP4 (residues …); test: yeast surface display, flow cytometry: soluble His-tagged RBP4 titrated on yeast displaying the binder, anti-penta-His detection, with 5 µM A1120; mean of three; remark: listed apart in the source
Experimental: All small molecules were present at a concentration of 5 µM. RBP4-binding was detected with an anti-penta-His antibody and subsequently analyzed by flow cytometry.

[8] = target: T1, Human His-tagged RBP4 (residues …); test: SPR (Biacore T200), single-cycle kinetics, RBP4 immobilised on a CM5 chip, RS3 injected at 937.5-15000 nM, without A1120; steady-state analysis; one representative experiment of four
Experimental: (§3) Applied concentrations of RS3 are indicated in the plots. […] Figure 17B: Figure 17C:
(§4) The antigen (RBP4) was coated onto a CM5 chip (GE Healthcare) and incubated with various concentrations of lipocalin-fold binding interaction partner solution in HBS-EP (GE Healthcare), followed by a dissociation phase in HBS-EP. […] Finally, K_d values (dissociation constants) were obtained by steady-state analysis.

[9] = target: T1, Human His-tagged RBP4 (residues …); test: SPR, -A1120; mean ± S.D., n=4
Experimental: as §4

[10] = target: T1, Human His-tagged RBP4 (residues …); test: SPR, + A1120; mean ± S.D., n=4
Experimental: as §4

[11] = target: T1, Human His-tagged RBP4 (residues …); test: SPR (Biacore T200), single-cycle kinetics, RBP4 immobilised on a CM5 chip, RS3 injected at 6.25-100 nM, with 5 µM A1120; steady-state analysis; one representative experiment of four
Experimental: as §3, §4

B1: RF2, FN3-based lipocalin-fold binding interaction partner, displayed on the surface of yeast (designed binder)
chain: VSDVPRDLEVVAATPTSLLISWYYPNASHAGYYRITYGETGGNSPVQEFTVPFSIRYTIATISGLKPGVDYTITVYAVTDYAYYYRLSEPISINYRTEIDKPSQ
notes: not shown: Yeast-display carrier of the pCTCON2 construct (Aga2p anchor, HA tag, linker, c-myc tag)
Kd [1]: 65 nM | Kd [2]: 41.8 nM | EC50 (read off the curve) [3]: ~40 nM

B2: RF2, FN3-based RBP4 binding interaction partner, soluble protein (designed binder)
chain: B1 chain
notes: Expressed in E. coli as His6-SUMO fusion; Monomeric by SEC
Kd [4]: 279 nM | KD,-A1120 / KD,+A1120 [5]: 16 | Kd [6]: 4380 nM

B3: RF1, FN3-based lipocalin-fold binding interaction partner, displayed on the surface of yeast (designed binder)
chain: B1 chain with I35V, Y71H, L87S
notes: as for B1
Kd [2]: 169 nM | EC50 (read off the curve) [7]: ~6 nM

B4: RS2, rcSso7d-based lipocalin-fold binding interaction partner, displayed on the surface of yeast (designed binder)
chain: ATVKLTYQGEEKQVDISKIKRVARYGQGIYFDYGEGGGAWGYGSVSEKDAPKELLQMLEKQ
notes: not shown: Yeast display carrier of pCTCON2 (Aga2p, HA tag, linker, C-terminal c-myc tag)
Kd [2]: 2.9 nM | EC50 (read off the curve) [3]: ~3 nM

B5: RS1, rcSso7d-based lipocalin-fold binding interaction partner, displayed on the surface of yeast (designed binder)
chain: ATVKFTYQGEEEQVDISKIKKVARYGQNIYFSYDEGGGAWDYGGVSEKDAPKELLQMLEKQ
notes: as for B4
Kd [2]: 1.5 nM | EC50 (read off the curve) [3]: 1 to 2 nM

B6: RS4, rcSso7d-based lipocalin-fold binding interaction partner, displayed on the surface of yeast (designed binder)
chain: B4 chain with V3A, L5F, D32S, G34D, W40Y
notes: as for B4
Kd [2]: 47.6 nM

B7: RS5, rcSso7d-based lipocalin-fold binding interaction partner, displayed on the surface of yeast (designed binder)
chain: B4 chain with L5F, K48E
notes: as for B1
Kd [1]: 80 nM | Kd [2]: 69.5 nM

B8: RS3, rcSso7d-based RBP4 binding interaction partner, soluble protein (designed binder)
chain: B5 chain with F5L, E12K, K21R, W40Y, G44A
notes: as for B2
Kd [4]: 7 nM | Kd [8]: 6130 nM | KD,-A1120 / KD,+A1120 [5]: 384 | Kd [9]: 4950 nM | Kd [10]: 9 nM | Kd [6]: 2690 nM | Kd [11]: 11 nM

B9: RS5, rcSso7d-based RBP4 binding interaction partner, soluble protein (designed binder)
chain: B4 chain with L5F, K48E
notes: as for B2
Kd [4]: 17 nM | KD,-A1120 / KD,+A1120 [5]: 222 | Kd [9]: 11000 nM | Kd [10]: 38 nM | Kd [6]: 3780 nM

B10: RS3, rcSso7d-based lipocalin-fold binding interaction partner, displayed on the surface of yeast (designed binder)
chain: B5 chain with F5L, E12K, K21R, W40Y, G44A
notes: as for B4
Kd [1]: 13 nM | Kd [2]: 11.5 nM | EC50 (read off the curve) [7]: ~20 nM | EC50 (read off the curve) [3]: ~10 nM

B11: RF3, FN3-based lipocalin-fold binding interaction partner, displayed on the surface of yeast (designed binder)
chain: VSDVPRDLEVVAATPTSLLISWYYPNASHAGYYRITYGETGGNSPVQEFTVPFSIRYTIATISGLKPGVDYTITVYAVTASCQYCSYPISINYRTEIDKPSQ
notes: as for B1
Kd [2]: 67 nM
